The values below come from patent publication US20030022275, “HUMAN NK-3 RELATED PROSTATE SPECIFIC GENE-1” (published 2003).

Data set [1] deals with T1, NKX3.1 homeodomain (NKX3.1HD) (Homo sapiens, UniProt Q99801 SEQ:122-188). Briefly: EMSA; human protein stated to behave identically to murine. The settings on record: tags: N-terminal 6xHis (pQE-9, E. coli); label: 32P. The method, then:
(§1) The DNA binding experiments were performed as follows. Briefly, increasing amounts of protein were incubated in binding buffer [10 mM Tris-HCl ([…]), 50 mM NaCl, 5% glycerol, 5% sucrose, 0.2 mM EDTA, 7.5 mM MgCl₂, 0.5 mg/mL bovine serum albumin, 0.1% NP-40, 10 mM DTT, 500 μg of poly-didC] with 4×10⁴ cpm of ³²P-labeled, double stranded oligonucleotide for 20 min at room temperature. The sequences of the DNA binding sites were as follows (top strand shown):
(§2) The DNA binding specificity of NKX3.1HD was examined by gel mobility shift analysis using various DNA sites identified for NK-like and Antennapedia-like homeodomains. The DNA sites were as follows: (i) the consensus DNA site for the NKX2.1 homeodomain (TCAAGTG) (Guazzi, S. et al., EMBO J. 9:3631-3639 (1990)) and a mutated version of this site that contains nucleotide substitutions within the CAAG core (TCACGTG); and (ii) the consensus DNA site identified for an Antennapedia-like homeodomain (Msx1) (CTAATTG), a mutated version of this site that contains nucleotide substitutions within the TAAT core (CTACTTG), or one that contains nucleotide substitutions 3′ of the TAAT core (CTAATGG) (Catron, K. M. et al., Mol. Cell. Biol. 13;2354-2365 (1993); Guazzi, S. et al., EMBO J. 9:3631-3639 (1990)). […]

The target of data set [2] is T1, NKX3.1 homeodomain (NKX3.1HD). Briefly: EMSA; human protein stated to behave identically to murine in DNA binding. The settings on record: tags: N-terminal 6xHis (pQE-9, E. coli); label: 32P. The method, then:
as §1, §2

B1: mutated C site (CACG) (dsDNA)
DNA 1: CACTGCCCAGTCACGTGTTCGTGA
DNA 2: TCACGAACACGTGACTGGGCAGTG
As for B1, in data set [1], the binding result is reported as “no binding”.

B2: site 6-19 (mutated TAAT core) (dsDNA)
DNA 1: ACACTACTTGGAGGC
DNA 2: GCCTCCAAGTAGTGT
In the case of B2, in data set [1], the binding result is listed as “no binding”.

B3: C site (NKX2.1 consensus, CAAG core) (dsDNA)
DNA 1: CACTGCCCAGTCAAGTGTTCTTGA
DNA 2: TCAAGAACACTTGACTGGGCAGTG
B3: the binding result in data set [2] is “binds”.
